A word on the stoichiometry N: it is the number of molecules, sites or subunits per partner or assembly.

In the experiment the target is horse liver alcohol dehydrogenase (horse). The experiment can be described thus: cryo-EM structure.

“horse liver alcohol dehydrogenase (enzyme)” showed a stoichiometry N of 2.

The record behind these values is article doi:10.1101/489898.
